Target: Cas9wt (SpCas9) (Streptococcus pyogenes, UniProt Q99ZW2 1-1368)
Experiment: single-molecule magnetic tweezers

Cas9wt (SpCas9), sequence (Q99ZW2 whole entry): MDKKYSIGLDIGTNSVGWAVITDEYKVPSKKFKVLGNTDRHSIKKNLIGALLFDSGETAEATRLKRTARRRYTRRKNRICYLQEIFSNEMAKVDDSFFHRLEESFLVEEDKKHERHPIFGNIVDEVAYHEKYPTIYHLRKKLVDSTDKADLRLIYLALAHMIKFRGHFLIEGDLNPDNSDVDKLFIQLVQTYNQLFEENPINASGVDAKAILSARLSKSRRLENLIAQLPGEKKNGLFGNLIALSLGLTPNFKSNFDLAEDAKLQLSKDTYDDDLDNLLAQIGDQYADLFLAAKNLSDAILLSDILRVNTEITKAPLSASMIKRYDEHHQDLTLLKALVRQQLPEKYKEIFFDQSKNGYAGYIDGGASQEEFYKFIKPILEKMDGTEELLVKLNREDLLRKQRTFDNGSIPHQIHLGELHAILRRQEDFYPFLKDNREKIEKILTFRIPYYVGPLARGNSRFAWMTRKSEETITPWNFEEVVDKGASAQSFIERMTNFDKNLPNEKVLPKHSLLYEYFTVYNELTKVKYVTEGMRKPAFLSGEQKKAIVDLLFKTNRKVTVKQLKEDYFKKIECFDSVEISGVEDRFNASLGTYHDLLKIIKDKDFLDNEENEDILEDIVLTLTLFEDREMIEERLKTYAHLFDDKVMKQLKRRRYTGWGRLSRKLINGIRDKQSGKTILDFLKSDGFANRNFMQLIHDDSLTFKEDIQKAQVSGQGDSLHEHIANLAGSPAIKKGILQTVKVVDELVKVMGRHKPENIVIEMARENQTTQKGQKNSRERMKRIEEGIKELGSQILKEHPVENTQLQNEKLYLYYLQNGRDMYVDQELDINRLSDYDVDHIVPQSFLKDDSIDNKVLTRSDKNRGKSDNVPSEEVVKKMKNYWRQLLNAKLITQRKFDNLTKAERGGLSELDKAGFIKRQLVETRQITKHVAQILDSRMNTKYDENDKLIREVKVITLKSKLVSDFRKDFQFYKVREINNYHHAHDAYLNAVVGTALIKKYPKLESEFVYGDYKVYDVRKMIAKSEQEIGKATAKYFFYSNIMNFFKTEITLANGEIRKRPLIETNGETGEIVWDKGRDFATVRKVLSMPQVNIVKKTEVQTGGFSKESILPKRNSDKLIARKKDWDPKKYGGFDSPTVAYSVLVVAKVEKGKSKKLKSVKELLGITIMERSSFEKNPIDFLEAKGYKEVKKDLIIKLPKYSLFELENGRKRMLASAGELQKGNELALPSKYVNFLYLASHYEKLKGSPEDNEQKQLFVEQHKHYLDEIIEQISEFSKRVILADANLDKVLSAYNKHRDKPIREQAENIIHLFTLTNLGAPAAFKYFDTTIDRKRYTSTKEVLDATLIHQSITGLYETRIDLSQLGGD

B1: sgRNA MT + 2.7 kb DNA with FM protospacer (mixed)
RNA: GAGCGAUACACAUGAGACGCGUUUUAGAGCUAGAAAUAGCAAGUUAAAAUAAGGCUAGUCCGUUAUCAACUUGAAAAAGUGGCACCGAGUCGGUGCUUUUU
binding result: binds

Reference: article PMC8643700
